According to patent publication US20260109770A1 (REMD BIOTHERAPEUTICS, published 2026):
Substitutions are numbered along the chain they refer to. Names and notes keep the numbering of the source. Read-outs that look alike come from different tables or passages of the source.

Key:
[1] = target: T1, human C-C chemokine receptor type 8 (hCCR8) (human, UniProt P51685 1-355); assay: cell-based or functional assay
[2] = target: T1, human C-C chemokine receptor type 8 …; assay: cell-based or functional assay; remark: listed apart in the source
human CCR4 (hCCR4) = target: T2, human CCR4 (hCCR4) (human, UniProt P51679 1-360); assay: flow cytometry on hCCR4-expressing CHO-K1 cells against parental CHO-K1 cells
T2 construct: whole, on cells
T2 sequence (looked up): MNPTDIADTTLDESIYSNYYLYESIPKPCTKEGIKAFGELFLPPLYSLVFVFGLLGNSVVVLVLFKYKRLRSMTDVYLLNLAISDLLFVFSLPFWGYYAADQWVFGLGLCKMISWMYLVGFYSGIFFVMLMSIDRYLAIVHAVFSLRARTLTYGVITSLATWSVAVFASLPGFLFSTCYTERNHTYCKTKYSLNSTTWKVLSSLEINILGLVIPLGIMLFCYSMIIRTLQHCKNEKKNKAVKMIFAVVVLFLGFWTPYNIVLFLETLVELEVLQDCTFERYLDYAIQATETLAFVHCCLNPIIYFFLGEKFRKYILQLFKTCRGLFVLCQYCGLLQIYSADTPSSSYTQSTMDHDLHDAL
Method: The antibodies were further screened for binding to human CCR4 (hCCR4) by flow cytometry. The antibodies were incubated with CHO-K1 cells and hCCR4-expressing CHO-K1 cells for 60 minutes at 4° C. The cells were washed thoroughly with PBS buffer and were then incubated with FITC-conjugated goat anti-mouse IgG Fc antibody or anti-human IgG Fc antibody. Mean Fluorescence Intensity (MFI) of antibody binding on the cells were analyzed by flow cytometry (Table 7).

[3] = target: T3, biotinylated recombinant human CTLA-4-Fc chimera (#786704, BioLegend) (human, UniProt P16410 37-162, biotinylated); assay: flow cytometry: hCCR8-expressing HEK293 cells pre-loaded with the antibody, washed, incubated with biotinylated human CTLA-4-Fc, detected with PE-streptavidin [panel C]
T3 construct: Bought reagent; Fc part of the bought chimera not given
T3 sequence (looked up): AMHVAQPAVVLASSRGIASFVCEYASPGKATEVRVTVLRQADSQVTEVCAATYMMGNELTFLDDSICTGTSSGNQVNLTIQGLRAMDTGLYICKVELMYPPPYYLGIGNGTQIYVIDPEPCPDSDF
Method: (§1) Bispecific antibodies FP578-01 and FP578-02 and anti-hCCR8 antibodies 504E12D8D12-HC1+LC1 (G34A) and 504E12D8D12-HC1+LC1 were incubated with hCCR8-expressing HEK293 cells for 1 hour at 4° C. The cells were washed and then incubated with biotinylated recombinant human CTLA-4-Fc chimera (#786704, BioLegend) for 1 hour at 4° C. After the cells were thoroughly washed, CTLA-4 was detected with phycoerythrin (PE)-conjugated streptavidin (#405203, BioLegend) by flow cytometry.

[4] = target: T1, human C-C chemokine receptor type 8 …; assay: KinExA, hCCR8-expressing cells
Method: (§2) Humanized antibodies 504E12D8D12-HC1+LC1 and 504E12D8D12-HC1+LC1 (G34A) were tested by the Kinetic Exclusion Assay (KinExA, Sapidyne Instruments) to determine the affinity of binding to hCCR8-overexpressing cells. Briefly, polystyrene particles (#442178, Sapidyne Instruments) were coated with goat anti-human IgG Fc-specific Fab fragment (#109-007-008, Jackson ImmunoResearch Lab) according to the manufacturer's protocol. The antibodies were incubated with serial dilutions of hCCR8-expressing HEK293 cells at room temperature overnight by gently rotating to achieve equilibrium. The final antibody concentrations were adjusted to 0.05 nM and 1 nM, respectively. The supernatants were collected and run on KinExA 3200 (Sapidyne Instruments), and the antibody was captured by the coated polystyrene particles. The captured antibody was detected with Alexa Fluor 647-conjugated goat anti-human IgG (H+L) antibody (#109-605-003, Jackson ImmunoResearch Lab). Data was recorded and analyzed using KinExA Pro software (version 4.3.20).
The affinity of bispecific antibodies FP578-01 and FP578-02 were determined by the kinetic exclusion assay as described above.

[5] = target: T1, human C-C chemokine receptor type 8 …; assay: cell-based or functional assay; remark: listed apart in the source
[6] = target: T3, biotinylated recombinant human …; assay: flow cytometry: hCCR8-expressing HEK293 cells pre-loaded with the antibody, washed, incubated with biotinylated human CTLA-4-Fc, detected with PE-streptavidin [panel D]
Method: as §1

[7] = target: T1, human C-C chemokine receptor type 8 …; assay: cell-based or functional assay; remark: listed apart in the source
[8] = target: T3, biotinylated recombinant human …; assay: flow cytometry: hCCR8-expressing HEK293 cells pre-loaded with the antibody, washed, incubated with biotinylated human CTLA-4-Fc, detected with PE-streptavidin [panel B]
Method: as §1

[9] = target: T1, human C-C chemokine receptor type 8 …; assay: KinExA, hCCR8-expressing HEK293 cells
Method: as §2

[10] = target: T1, human C-C chemokine receptor type 8 …; assay: cell-based or functional assay; remark: listed apart in the source
[11] = target: T3, biotinylated recombinant human …; assay: flow cytometry: hCCR8-expressing HEK293 cells pre-loaded with the antibody, washed, incubated with biotinylated human CTLA-4-Fc, detected with PE-streptavidin [panel A]
Method: as §1

T1 sequence (P51685 whole entry): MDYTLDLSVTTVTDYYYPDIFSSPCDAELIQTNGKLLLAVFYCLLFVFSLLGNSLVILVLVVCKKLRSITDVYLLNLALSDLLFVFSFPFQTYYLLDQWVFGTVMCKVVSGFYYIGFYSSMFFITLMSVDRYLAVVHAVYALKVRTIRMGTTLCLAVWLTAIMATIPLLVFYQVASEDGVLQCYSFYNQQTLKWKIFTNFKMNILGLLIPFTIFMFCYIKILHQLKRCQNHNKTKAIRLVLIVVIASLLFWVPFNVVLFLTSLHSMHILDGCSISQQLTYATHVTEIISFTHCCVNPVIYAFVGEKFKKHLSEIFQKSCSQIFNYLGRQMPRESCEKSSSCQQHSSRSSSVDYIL

B1: murine-human chimeric (human IgG1) antibody 531B9B1C9 (antibody, V domains shown)
VH: EVQLVESGGGLVQPKGSLKLSCAASGFSFNAYAMNWVRQAPGKGLDWVARIRSKSNNYATYYADSVKDRFTISRDDSESMLYLQMNNLKTEDTAMYFCVRQTYGSRDYAMDYWGQGTSVTVSS
VL: DVVMTQTPLSLPVSLGDQASISCRSSQSLVHSNGNTYLHWYLQKPGQSPKLLIYKVSNRFSGVPDRFSGSGSGTDFTLKISRVEAEDLGVYFCCQSTHVPPYTFGGGTKLEIKR
notes: Chimeric antibody derived from murine antibody A13 and human IgG1
In the case of B1, the “EC50 of ADCC activity (column head prints IC50 (nM)); ADCC/NFAT-reporter-Jurkat bioassay” value [1] is reported as 0.028 nM, the “IC50 (nM), antagonist activity measured by β-arrestin assay” value (“IC50 (nM) … by β-arrestin assay” below) [2] is reported as 2.18 nM and the binding result (human CCR4 (hCCR4)) is reported as “no binding”.

B2: bispecific antibody FP578-01 (CCR8/CTLA-4) (bispecific antibody, human IgG1, kappa)
heavy: not shown
light: DIVMTQTPPSLPVNPGEPASISCRSSKSLLHSNANTYLYWYLQKPGQSPQLLIYRMSNLASGVPDRFSGSGSGSDFTLKISWVEAEDVGVYYCMQHLEYPFTFGGGTKLEIKRTVAAPSVFIFPPSDEQLKSGTASVVCLLNNFYPREAKVQWKVDNALQSGNSQESVTEQDSKDSTYSLSSTLTLSKADYEKHKVYACEVTHQGLSSPVTKSFNRGEC
In the case of B2, the binding result [3] is reported as “binds”, the Kd [4] is reported as 0.102 nM and the “IC50 (nM) … by β-arrestin assay” value [5] is reported as 4.26 nM.

B3: bispecific antibody FP578-02 (CCR8/CTLA-4) (bispecific antibody, human IgG1, kappa)
heavy: not shown
light: B2 light with A34G
For B3, the binding result [6] was “binds”, the Kd [4] was 0.104 nM and the “IC50 (nM) … by β-arrestin assay” value [5] was 3.6 nM.

B4: humanized antibody 41E1C2A5-HC3+LC4 (antibody, human IgG1, kappa, V domains shown)
VH: EVQLVESGGGLVQPGGSLKLSCAASGFSFNAYAMNWVRQASGKGLEWVARIRSKSNNYATYYADSVKDRFTISRDDSKNTAYLQMNSLKTEDTAVYFCVRGGTYGSSSYFDYWGQGTTVTVSS
VL: DIVMTQSPLSLPVTPGEPASIPCRSSKSLLHSNGNTYLYWFLQKPGQSPQLLIYRMSNLASGVPDRFSGSGSGTAFTLKISRVEAEDVGVYYCMQHLEYPFTFGGGTKLEIKR
B4 was tested, and the “IC50 (nM), antagonist activity measured by calcium flux assay” value (shortened to “IC50 (nM) … by calcium flux assay”) [7] was 25.3 nM.

B5: humanized antibody 504E12D8D12-HC1+LC1 (antibody, human IgG1, kappa, V domains shown)
VH: EVQLVESGGGLVQPGGSLKLSCAASGFSFNTYAMNWVRQASGKGLEWVGRIRTKSNNYATYYAASVKDRFTISRDDSKNTAYLQMNSLKTEDTAVYYCTRGGSGLNYVRYFDVWGQGTTVTVSS
VL: B4 VL with S7T, L9P, T14N, P22S, F41Y, T74S, A75D, R82W
B5 was tested, and the binding result [8] was “no binding”, the Kd [9] was 0.072 nM and the “IC50 (nM) … by calcium flux assay” value [10] was 8.6 nM.

B6: humanized antibody 504E12D8D12-HC1+LC1(G34A) (antibody, human IgG1, kappa, V domains shown)
VH: B5 VH
VL: B4 VL with S7T, L9P, T14N, P22S, G34A, F41Y, T74S, A75D, R82W
With B6 the binding result [11] was “no binding”, the Kd [9] was 0.072 nM and the “IC50 (nM) … by calcium flux assay” value [10] was 14.4 nM.

B7: humanized antibody 41E1C2A5-HC4+LC2 (antibody, human IgG1, kappa, V domains shown)
VH: B4 VH with K78E
VL: B4 VL with P22S
With B7 the “IC50 (nM) … by calcium flux assay” value [7] was 13.1 nM.
